Experimental data taken from paper PMC5385842 (Science signaling, 2016).

Molecular target: the molecule itself
Test: two-colour single-particle tracking

B1: pre-B cell receptor (pre-BCR) on the surface of 697 cells (complex)
chain 1: GSASAPTLFPLVSCENSPSDTSSVAVGCLAQDFLPDSITFSWKYKNNSDISSTRGFPSVLRGGKYAATSQVLLPSKDVMQGTDEHVVCKVQHPNGNKEKNVPLPVIAELPPKVSVFVPPRDGFFGNPRKSKLICQATGFSPRQIQVSWLREGKQVGSGVTTDQVQAEAKESGPTTYKVTSTLTIKESDWLGQSMFTCRVDHRGLTFQQNASSMCVPDQDTAIRVFAIPPSFASIFLTKSTKLTCLVTDLTTYDSVTISWTRQNGEAVKTHTNISESHPNATFSAVGEASICEDDWNSGERFTCTVTHTDLPSPLKQTISRPKGVALHRPDVYLLPPAREQLNLRESATITCLVTGFSPADVFVQWMQRGQPLSPEKYVTSAPMPEPQAPGRYFAHSILTVSEEEWNTGETYTCVVAHEALPNRVTERTVDKSTEGEVSADEEGFENLWATASTFIVLFLLSLFYSTTVTLFKVK
chain 2: QPVLHQPPAMSSALGTTIRLTCTLRNDHDIGVYSVYWYQQRPGHPPRFLLRYFSQSDKSQGPQVPPRFSGSKDVARNRGYLSISELQPEDEAMYYCAMGARSSEKEEREREWEEEMEPTAARTRVP
chain 3: LLRPTAASQSRALGPGAPGGSSRSSLRSRWGRFLLQRGSWTGPRCWPRGFQSKHNSVTHVFGSGTQLTVLSQPKATPSVTLFPPSSEELQANKATLVCLMNDFYPGILTVTWKADGTPITQGVEMTTPSKQSNNKYAASSYLSLTPEQWRSRRSYSCQVMHEGSTVEKTVAPAECS
chain 4: LWMHKVPASLMVSLGEDAHFQCPHNSSNNANVTWWRVLHGNYTWPPEFLGPGEDPNGTLIIQNVNKSHGGIYVCRVQEGNESYQQSCGTYLRVRQPPPRPFLDMGEGTKNRIITAEGIILLFCAVVPGTLLLFRKRWQNEKLGLDAGDEYEDENLYEGLNLDDCSMYEDISRGLQGTYQDVGSLNIGDVQLEKP
chain 5: ARSEDRYRNPKGSACSRIWQSPRFIARKRGFTVKMHCYMNSASGNVSWLWKQEMDENPQQLKLEKGRMEESQNESLATLTIQGIRFEDNGIYFCQQKCNNTSEVYQGCGTELRVMGFSTLAQLKQRNTLKDGIIMIQTLLIILFIIVPIFLLLDKDDSKAGMEEDHTYEGLDIDQTATYEDIVTLRTGEVKWSVGEHPGQE
koff: 1.14 s⁻¹ | stoichiometry N: 2
